B1: Guanylyl cyclase-activating protein 1, P43080 (parent)
chain: MGNVMEGKSVEELSSTECHQWYKKFMTECPSGQLTLYEFRQFFGLKNLSPSASQYVEQMFETFDFNKDGYIDFMEYVAALSLVLKGKVEQKLRWYFKLYDVDGNGCIDRDELLTIIQAIRAINPCSDTTMTAEEFTDTVFSKIDVNGDGELSLEEFIEGVQKDQMLLDTLTRSLDLTRIVRRLQNGEQDEEGADEAAEAAG

The series covers variants of B1. As to conditions: Homo sapiens, pH 7.5, Thermal, CD, Tris-HCl 20mM, whole UniProt chain shown.

For orientation: Tm means the temperature at the midpoint of the melting transition. On to G86R, for which, under “KCL 150 mM”, the Tm stood at 41.6 °C and the “change of melting temperature, mutant - wild type (higher = more stable)” value (“change of melting temperature, mutant” below) is -8.2 °C. Also, where the note is “KCL and Mg2+ 150 mM and 1 mM”, the Tm was found to be 46.8 °C and the “change of melting temperature, mutant” value is -3.5 °C.
Consider G86R W94L, for which, for the setting “KCL 150 mM”, the Tm stood at 42 °C and the “change of melting temperature, mutant” value is -7.8 °C. Where the note is “KCL and Mg2+ 150 mM and 1 mM”, the Tm came to 47 °C and the “change of melting temperature, mutant” value is -3.3 °C.
As to G86R W94F, where the note is “KCL 150 mM”, the Tm amounted to 40.6 °C and the “change of melting temperature, mutant” value was -9.2 °C. For the same variant, where the note is “KCL and Mg2+ 150 mM and 1 mM”, the Tm stood at 47.8 °C and the “change of melting temperature, mutant” value is -2.5 °C.

(Values after FireProtDB (doi:10.3390/ijms21030752).)
